From PMC2034485 (Nucleic Acids Research, 2007)

B1: GST-fused Rad18 (1–99), Ring domain (domain or fragment)
chain: MDSLAESRWPPGLAVMKTIDDLLRCGICFEYFNIAMIIPQCSHNYCSLCIRKFLSYKTQCPTCCVTVTEPDLKNNRILDELVKSLNFARNHLLQFALES

Key:
ubiquitin = ubiquitin (UniProt P0CG48 1-76); experiment: SPR
human Rad6 (hHR6B) = human Rad6 (hHR6B) (human, UniProt P63146 1-152); experiment: SEC
Sequence of human Rad6 (hHR6B) (P63146 whole entry): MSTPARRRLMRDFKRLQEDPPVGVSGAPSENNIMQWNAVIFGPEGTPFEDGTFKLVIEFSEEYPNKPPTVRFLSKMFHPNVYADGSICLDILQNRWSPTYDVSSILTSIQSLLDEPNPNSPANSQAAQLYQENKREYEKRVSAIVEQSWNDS

| Binder | Kd (ubiquitin) [µM] | binding result (human Rad6 (hHR6B)) |
| --- | --- | --- |
| TLKQVTKVDCPVCGVNIPESHINKHLDSCLSREEKKES (domain or fragment) [GST-ZnF (Rad18 zinc finger domain)] | 42.1 | – |
| TLKQVTKVDCPVFGVNIPESHINKHLDSCLSREEKKES (domain or fragment) [GST-C207F ZnF] | 192 | – |
| B1 | – | binds |
